Test results taken from US7449563B2, “Methods and compositions for destabilizing microtubules” (Academia Sinica, priority 2003, dated 2008).
Residue numbers refer to the chain shown, from its start. Names may count otherwise. One block for each molecule: values may come before it. No end group written: not given here.

Experiments:
[1] = molecular target: T1, microtubule nucleation from purified centrosomes (bovine brain tubulin) (Bos taurus, UniProt P81947+Q6B856); assay: In vitro centrosome-dependent microtubule nucleation assay; type: biochemical; conditions: for Effect of synthetic peptide on centrosome-dependent microtubule nucleation (in words): 20 μM or 40 μM peptide; for Inhibition of microtubule nucleation/assembly from purified centrosomes (in words): in vitro
T1 construct: containing 125 μg bovine brain tubulin (Cytoskeleton, Denver, Colo.); purchased Cytoskeleton, Denver, Colo; host or cells: bovine brain (tissue-purified)
Description: In vitro Centrosome-Dependant Microtubule Nucleation Assay
Isolation of centrosomes and microtubule nucleation tests were performed as described (Hung et al., 2000). To investigate the effect of different GST-truncated CPAP fusion proteins on microtubule nucleation, purified centrosomes (4 μl per reaction) were pre-incubated with the various truncated GST-CPAP fusion proteins or FPLC purified synthetic peptides for 10 min at 4° C. The reaction mixtures were then incubated in 65 μl RG1 buffer (80 mM PIPES, pH 6.8, 1 mM EGTA, 1 mM MgCl2, and 1 mM GTP) containing 125 μg bovine brain tubulin (Cytoskeleton, Denver, Colo.) for 4 min at 37° C.
Microtubules present in the reaction mixtures were fixed in 200 μl 1% glutaraldehyde in RG1 buffer, sedimented onto acid-treated coverslips, and subjected to immunofluoresence analysis using anti-α-tubulin monoclonal antibodies N356 (Amersham, Piscataway, N.J.) or FITC-conjugated anti-α-tubulin monoclonal antibodies (DM1A-FITC; Sigma, Saint Louis, Mo.). Truncated GST-CPAP proteins were detected using an anti-GST polyclonal antibody (Molecular Probes, Cincinnati, Ohio). The extent of microtubule assembly in each reaction was determined microscopically by comparing the extent of microtubule formation on each coverslip. Decreased microtubule formation in reactions comprising polypeptides derived from CPAP indicated the ability of such polypeptides to inhibit centrosome-dependent microtubule assembly.

[2] = tested on: HeLa cells; assay: Cell-based assay for CPAP activity: microtubule reassembly in cold-treated transfected HeLa cells; set-up: species or system human; conditions: for Inhibition of microtubule reassembly in cold-treated mitotic cells (in words): transiently transfected HeLa cells
Description: Cell Culture and Transfection
HeLa cells were maintained in DMEM supplemented with 10% fetal bovine serum. cDNA clones encoding different portions of CPAP were subcloned, in an appropriate reading frame, into the CMV promoter-driven EGFP-C1 expression vector (Clontech, Palo Alto, Calif.). Transient transfections were performed using Lipofectamine 2000 (Invitrogen, Carlsbad, Calif.) according to the manufacturer's instructions.
Cold Treatment, Immunofluorescence and Confocal Microscopy
HeLa cells were grown on coverslips for at least 24 hr. Cold treatment was performed by incubating the cells at 4° C. for 1 hr, then replacing the cold medium with medium warmed to 30° C. and incubating the cells for 2 min at 30° C. The cells were then fixed with 1% formaldehyde for 30 min at room temperature.
The fixed cells were incubated in the presence of anti-α-tubulin monoclonal antibodies (N356, Amersham, Piscataway, N.J.) and anti-γ-tubulin polyclonal antibodies (Sigma, Saint Louis, Mo.). Bound anti-α-tubulin monoclonal antibodies (N356) were detected with Alexa 568, a Texas Red-conjugated goat anti-mouse IgG, or Alexa 647, a far-red fluorophore-conjugated goat anti-mouse IgG. Bound anti-γ-tubulin polyclonal antibodies were detected with Alexa 568 (Molecular Probes Inc.). The resulting […] signals were detected using a laser scanning confocal system (MRC 1000, Bio-Rad Laboratories, Hercules, Calif.).
The effect of various polypeptides derived from CPAP was determined by evaluating the amounts of mitotic spindle formation in the transfected cells. Decreased mitotic spindle formation indicated the presence of an activity that inhibited microtubule formation or destabilized microtubules.

T1 sequence (P81947 whole entry): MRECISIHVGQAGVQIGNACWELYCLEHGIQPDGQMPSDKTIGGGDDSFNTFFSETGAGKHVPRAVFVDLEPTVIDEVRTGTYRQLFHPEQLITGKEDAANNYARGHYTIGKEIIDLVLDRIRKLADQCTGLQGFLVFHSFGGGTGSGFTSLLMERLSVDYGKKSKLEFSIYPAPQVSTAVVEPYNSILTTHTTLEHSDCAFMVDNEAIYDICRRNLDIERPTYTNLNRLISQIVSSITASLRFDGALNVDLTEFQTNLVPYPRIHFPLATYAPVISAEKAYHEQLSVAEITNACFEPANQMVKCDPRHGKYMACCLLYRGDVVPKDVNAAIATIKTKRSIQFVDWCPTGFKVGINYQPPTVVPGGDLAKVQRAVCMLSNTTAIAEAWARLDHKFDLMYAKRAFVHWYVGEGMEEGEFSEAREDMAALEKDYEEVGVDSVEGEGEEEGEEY
T1 sequence (Q6B856 whole entry): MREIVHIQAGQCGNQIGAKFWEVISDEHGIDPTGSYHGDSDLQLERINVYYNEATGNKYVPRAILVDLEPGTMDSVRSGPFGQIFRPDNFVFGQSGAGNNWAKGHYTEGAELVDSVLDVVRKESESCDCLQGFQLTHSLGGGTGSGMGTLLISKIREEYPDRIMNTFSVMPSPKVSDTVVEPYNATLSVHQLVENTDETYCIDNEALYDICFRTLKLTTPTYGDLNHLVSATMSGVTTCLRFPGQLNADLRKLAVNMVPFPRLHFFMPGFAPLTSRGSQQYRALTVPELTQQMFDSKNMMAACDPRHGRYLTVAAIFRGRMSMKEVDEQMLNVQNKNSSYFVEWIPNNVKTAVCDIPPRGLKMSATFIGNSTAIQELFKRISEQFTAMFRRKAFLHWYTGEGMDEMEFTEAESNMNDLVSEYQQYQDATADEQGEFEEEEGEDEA

Molecule: peptide C1: synthetic peptide, amino acid residues 363-392 of CPAP (SEQ ID NO:1) (GPLPIKAKPKQPFLKRGEGLARFTNAKSKF; listed as Homo sapiens)
- Effect of synthetic peptide on centrosome-dependent microtubule nucleation (in words) [1]: No effect

Molecule: GFP-PN2-1: GFP-tagged CPAP residues 132-190 (EFKEGAYKDPLFKKLEQLKEVQQKKQEQLKRQQLEQLQRLMEEQEKLLTMVSGQCTLPG; also: GFP tag, terminus not given here; UniProt Q9HC77 132-190, looked up, fragment)
- Inhibition of microtubule reassembly in cold-treated mitotic cells (in words) [2]: no significant inhibition

B1: PN2-3: PN2-3 polypeptide with wild-type CPAP sequence, residues 311-422 of SEQ ID NO:1, expressed using pET vectors (protein, listed as Homo sapiens)
chain: QKHDDSSEVANIEERPIKAAIGERKQTFEDYLEEQIQLEEQELKQKQLKEAEGPLPIKAKPKQPFLKRGEGLARFTNAKSKFQKGKESKLVTNQSTSEDQPLFKMDRQQLQR
- Inhibition of microtubule nucleation/assembly from purified centrosomes (in words) [1]: showed the ability to inhibit microtubule assembly

B2: L353P: PN2-3 polypeptide with L353 mutated to proline (protein, listed as Homo sapiens)
chain: MFLMPTSSELNSGQNFLTQWMTNPSRAGVILNRGFPILEADKEKRAAVDISTSFPIKGTHFSDSFSFINEEDSLLEEQKLESNNPYKPQSDKSETHTAFPCIKKGPQVAACHSAPGHQEENKNDFIPDRASEFKEGAYKDPLFKKLEQLKEVQQKKQEQLKRQQLEQLQRLMEEQEKLLTMVSGQCTLPGLSLLPDDQSQKHRSPGNTTTGERATCCFPSYVYPDPTQEETYPSNILSHEQSNFCRTAHGDFVLTSKRASPNLFSEAQYQEAPVEKNNLKEENRNHPTGESILCWEKVTEQIQEANDKNLQKHDDSSEVANIEERPIKAAIGERKQTFEDYLEEQIQLEEQEPKQKQLKEAEGPLPIKAKPKQPFLKRGEGLARFTNAKSKFQKGKESKLVTNQSTSEDQPLFKMDRQQLQRKTALKNKELCADNPILKKDSKARTKSGSVTLSQKPKMLKCSNRKSLSPSGLKIQTGKKCDGQFRDQIKFENKVTSNNKENVTECPKPCDTGCTGWNKTQGKDRLPLSTGPASRLAAKSPIRETMKESESSLDVSLQKKLETWEREKEKENLELDEFLFLEQAADEISFSSNSSFVLKILERDQQICKGHRMSSTPVKAVPQKTNPADPISHCNRSEDLDHTAREKESECEVAPKQLHSLSSADELREQPCKIRKAVQKSTSENQTEWNARDDEGVPNSDSSTDSEEQLDVTIKPSTEDRERGISSREDSPQVCDDKGPFKDTRTQEDKRRDVDLDLSDKDYSSDESIMESIKHKVSEPSRSSSLSLSKMDFDDERTWTDLEENLCNHDVVLGNESTYGTPQTCYPNNEIGILDKTIKRKIAPVKRGEDLSKSRRSRSPPTSELMMKFFPSLKPKPKSDSHLGNELKLNISQDQPPGDNARSQVLREKIIELETEIEKFKAENASLAKLRIERESALEKLRKEIADFEQQKAKELARIEEFKKEEMRKLQKERKVFEKYTTAARTFPDKKEREEIQTLKQQIADLREDLKRKETKWSSTHSRLRSQIQMLVRENTDLREEIKVMERFRLDAWKRAEAIESSLEVEKKDKLANTSVRFQNSQISSGTQVEKYKKNYLPMQGNPPRRSKSAPPRDLGNLDKGQAASPREPLEPLNFPDPEYKEEEEDQDIQGEISHPDGKVEKVYKNGCRVILFPNGTRKEVSADGKTITVTFFNGDVKQVMPDQRVIYYYAAAQTTHTTYPEGLEVLHFSSGQIEKHYPDGRKEITFPDQTVKNLFPDGQEESIFPDGTIVRVQRDGNKLIEFNNGQRELHTAQFKRREYPDGTVKTVYANGHQETKYRSGRIRVKDKEGNVSMDTEL
- Inhibition of microtubule nucleation/assembly from purified centrosomes (in words) [1]: showed the ability to inhibit microtubule assembly

B3: GFP-CPAP-fl: GFP-tagged full-length CPAP polypeptide, residues 1-1338, expressed from a transfected vector (protein, UniProt Q9HC77 1-1338, looked up)
chain: B2 chain with R129L, P353L, S1333L
modifications: full-length GFP tag
notes: GFP-tagged full-length CPAP polypeptide, residues 1-1338, expressed from a transfected vector
- Inhibition of microtubule reassembly in cold-treated cells (in words) ([2]; transfected HeLa cells expressing lower levels of the construct): no significant inhibition
- Inhibition of microtubule reassembly in cold-treated mitotic cells (in words) [2]: significantly inhibited microtubule reassembly

B4: GST-PN2: GST fusion polypeptide corresponding to amino acid residues 132-422 of CPAP (protein, UniProt Q9HC77 132-422, looked up, fragment)
chain: EFKEGAYKDPLFKKLEQLKEVQQKKQEQLKRQQLEQLQRLMEEQEKLLTMVSGQCTLPGLSLLPDDQSQKHRSPGNTTTGERATCCFPSYVYPDPTQEETYPSNILSHEQSNFCRTAHGDFVLTSKRASPNLFSEAQYQEAPVEKNNLKEENRNHPTGESILCWEKVTEQIQEANDKNLQKHDDSSEVANIEERPIKAAIGERKQTFEDYLEEQIQLEEQELKQKQLKEAEGPLPIKAKPKQPFLKRGEGLARFTNAKSKFQKGKESKLVTNQSTSEDQPLFKMDRQQLQR
modifications: GST tag
notes: GST fusion polypeptide corresponding to amino acid residues 132-422 of CPAP
- Inhibition of microtubule nucleation/assembly from purified centrosomes (in words) [1]: inhibited

Second part, the molecule after the results:

- Effect of synthetic peptide on centrosome-dependent microtubule nucleation (in words) [1]: No effect
Molecule: peptide H2: synthetic peptide, amino acid residues 327-362 of CPAP (SEQ ID NO:1) (IKAAIGERKQTFEDYLEEQIQLEEQELKQKQLKEAE; listed as Homo sapiens)

- Effect of synthetic peptide on centrosome-dependent microtubule nucleation (in words) [1]: No effect
Molecule: peptide C2: synthetic peptide, amino acid residues 393-423 of CPAP (SEQ ID NO:1) (QKGKESKLVTNQSTSEDQPLFKMDRQQLQRK; listed as Homo sapiens)

- Inhibition of microtubule nucleation/assembly from purified centrosomes (in words) [1]: less inhibition
Molecule: GST-PN2-3C: GST fusion with PN2-3C, amino acid residues 369-422 of CPAP (non-helical motif) (AKPKQPFLKRGEGLARFTNAKSKFQKGKESKLVTNQSTSEDQPLFKMDRQQLQR; also: GST tag, terminus not given here; UniProt Q9HC77 369-422, looked up, fragment)

- Effect of synthetic peptide on centrosome-dependent microtubule nucleation (in words) [1]: No effect
Molecule: peptide N: synthetic peptide, amino acid residues 310-329 of CPAP (SEQ ID NO:1) (LQKHDDSSEVANIEERPIKA; listed as Homo sapiens)
